This is an account of results in article PMC8379990, “Structure of autoinhibited Akt1 reveals mechanism of PIP3-mediated activation” (Proceedings of the National Academy of Sciences of the …, 2021).

The target in this assay is T1, C-terminal tail peptide (FITC-SMEAVDSERRPHFPQFSYSASGTA) (human, C460A (from the letters against P31749, from memory; not stated by the paper) …, FITC (fluorescein) on the N-terminus; unphosphorylated).
T1 construct: residues 457 to 480 of human Akt1 (the C-terminal tail residues missing in Akt1^ΔC); The methods call it 'the C-terminal 35 amino acids of Akt1', but the printed peptide has 24 residues; also called fluorescein-labeled peptide (unphosphorylated)
T1 peptide: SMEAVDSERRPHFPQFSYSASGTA
As to the kind of experiment: fluorescence polarisation; fluorescence anisotropy; reverse titration of 200 to 250 µM Akt1^ΔC in buffer with 100 nM fluorescein-labeled peptide; 20 °C, 20 mM Tris pH 8.0, 100 mM NaCl, 1 mM TCEP; one-site binding model; three independent titrations; saturation not reached. As to conditions: both partners purified.

B1: Akt1 1 to 456 (Akt1^ΔC) (domain or fragment)
chain: MNDVAIVKEGWLHKRGEYIKTWRPRYFLLKNDGTFIGYKERPQDVDQREAPLNNFSVAQCQLMKTERPRPNTFIIRCLQWTTVIERTFHVETPEEREEWTTAIQTVADGLKKQEEEEMDASAEHTDMEVSLAKPKHRVTMNEFEYLKLLGKGTFGKVILVKEKATGRYYAMKILKKEVIVAKDEVAHTLTENRVLQNSRHPFLTALKYSFQTHDRLCFVMEYANGGELFFHLSRERVFSEDRARFYGAEIVSALDYLHSEKNVVYRDLKLENLMLDKDGHIKITDFGLCKEGIKDGATMKTFCGTPEYLAPEVLEDNDYGRAVDWWGLGVVMYEMMCGRLPFYNQDHEKLFELILMEEIRFPRTLGPEAKSLLSGLLKKDPKQRLGGGSEDAKEIMQHRFFAGIVWQHVYEKKLSPPFKPQVTSETDTRYFDEEFTAQMITITPPDQDD
modifications: phosphothreonine at T450 (stoichiometrically monophosphorylated, turn motif)
Broadly, the Kd is a measure of binding affinity in units of concentration. A lower Kd goes with tighter binding. Molecule B1 showed a Kd of about 500 µM.
